Reference: publication PMC8406418 (2021)

Molecular target: T1, kappa-opioid receptor (KOR-EGFP) (Mus musculus, UniProt P33534)
T1 chain: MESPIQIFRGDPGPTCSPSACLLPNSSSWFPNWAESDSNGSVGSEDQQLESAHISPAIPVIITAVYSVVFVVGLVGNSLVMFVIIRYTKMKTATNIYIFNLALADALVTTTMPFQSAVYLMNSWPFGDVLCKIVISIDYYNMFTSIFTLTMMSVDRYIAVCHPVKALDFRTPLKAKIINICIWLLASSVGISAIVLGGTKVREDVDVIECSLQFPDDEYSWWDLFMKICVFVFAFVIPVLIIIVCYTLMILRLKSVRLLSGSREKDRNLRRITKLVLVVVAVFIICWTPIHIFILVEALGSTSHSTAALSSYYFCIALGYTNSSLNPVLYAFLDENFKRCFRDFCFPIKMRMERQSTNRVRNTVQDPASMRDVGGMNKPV
Experiment: radioligand displacement ([3H]-diprenorphine)

- Ki: 0.3 nM
Binder: MAWQGLVLAACLL [dynorphin A1-13 1-13]
